Diffusion coefficient shift (EGF-treated cells, with pertuzumab), diffusion coefficient shift (EGF-treated cells) and peak shift of the diffusion coefficient data for two substances are collected here from publication PMC8080847.

Assay [1] addresses EGFR on Cos7 cells (African green monkey (endogenous in Cos7)). As to the kind of experiment: single-molecule diffusional mobility shift assay (smDIMSA); living Cos7 cells treated with EGF and pertuzumab; EGFR bait labelled with Fab-Alexa Fluor 647, tracked before and after the anti-ErbB2 antibody.
Assay [2] shares this target. Kind of assay: single-molecule diffusional mobility shift assay (smDIMSA); living Cos7 cells treated with EGF, no pertuzumab (mock); EGFR bait labelled with Fab-Alexa Fluor 647, tracked before and after the anti-ErbB2 antibody.
Assay [3] has as its target mEos3.2-CD86 (CD86 truncated at R227) (UniProt P42081). As to the kind of experiment: single-molecule diffusional mobility shift assay (smDIMSA); homodimer format on living HeLa cells: receptor partially labelled with the Alexa Fluor 647 Fab (20 nM, 15 min) of a monoclonal antibody, tracked before and after 15 min with the same full-length antibody; 37 °C; peak shift averaged from multiple cells.

Turning to ErbB2 on Cos7 cells (receptor), the diffusion coefficient shift (EGF-treated cells, with pertuzumab) in assay [1] stood at 6%. The diffusion coefficient shift (EGF-treated cells) in assay [2] stood at 12%.

Regarding “mEos3.2-CD86 (CD86 truncated at R227) (from UniProt P42081 24-227) (receptor)”, the peak shift of the diffusion coefficient in assay [3] is < 1%.
